Measured values: patent publication US20170291955A1 (AstraZeneca / MedImmune, published 2017)
Where a chain is given by its changes, count along the chain named. Values belong to the binder of their own block, whether it stands above or below them.

How the values were obtained:
[1] = molecular target: T1, human HER4 recombinant extracellular domain protein (human, UniProt Q15303 26-651); experiment: capture ELISA on coated recombinant extracellular domain protein
T1 construct: extracellular domain
T1 sequence (looked up): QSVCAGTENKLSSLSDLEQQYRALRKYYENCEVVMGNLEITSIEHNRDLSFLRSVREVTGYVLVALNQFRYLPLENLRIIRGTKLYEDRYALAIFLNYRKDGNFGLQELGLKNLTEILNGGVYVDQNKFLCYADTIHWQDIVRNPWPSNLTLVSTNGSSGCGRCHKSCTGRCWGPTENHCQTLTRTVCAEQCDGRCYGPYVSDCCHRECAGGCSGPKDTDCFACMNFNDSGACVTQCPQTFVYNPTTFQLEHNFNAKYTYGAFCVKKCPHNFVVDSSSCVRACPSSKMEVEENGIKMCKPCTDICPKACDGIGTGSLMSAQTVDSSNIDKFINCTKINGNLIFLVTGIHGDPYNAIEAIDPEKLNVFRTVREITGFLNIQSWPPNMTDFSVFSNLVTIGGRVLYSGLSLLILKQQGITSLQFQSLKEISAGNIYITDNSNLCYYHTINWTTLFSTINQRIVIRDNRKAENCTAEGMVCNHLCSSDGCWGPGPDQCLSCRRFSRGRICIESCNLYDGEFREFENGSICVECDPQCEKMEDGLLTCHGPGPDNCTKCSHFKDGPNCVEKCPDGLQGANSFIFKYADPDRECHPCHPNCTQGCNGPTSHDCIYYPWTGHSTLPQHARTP
Protocol: (§1) Antibody to be tested was prepared by diluting in a stepwise 1:3 serial dilution ranging from 50 nM down to 0.28 pM and then added to the wells in duplicate. After one hour of incubation, plates were washed, and goat anti-human IgG Fab HRP-conjugated secondary antibody was added to each well and the plates were incubated for 1 hour. The plates were washed and TMB substrate was added and incubated for 5-20 min to allow color development. The stop solution was added to the wells at the end of reaction and the plates were read at 450 nm. Binding signal (absorbance at 450 nm) was plotted against antibody concentration using Prism software.

[2] = molecular target: T2, human HER3 recombinant extracellular domain protein (human, UniProt P21860 20-643); experiment: as above
T2 construct: extracellular domain
Protocol: as §1

[3] = molecular target: T3, human EGFR recombinant extracellular domain protein (human, UniProt P00533 25-645); experiment: as above
T3 construct: extracellular domain
Protocol: as §1

KO_146-208 = molecular target: T4, KO_146-208 (human; mouse, UniProt P70424 169-231); experiment: SPR (ProteOn XPR36), variant captured by anti-Her2 polyclonal antibody, 39S injected
T4 construct: domain: counterpart of human amino acids 146-208
Protocol: (§2) The chimeric variant nomenclature denotes types of variants (KO/KI) and the number of domains swapped. […] The expression of the variants was monitored by anti-His polyclonal antibody using ProteOn™.
(§3) Standard amine coupling was used to immobilize an anti-human or mouse Her2 polyclonal antibody (R&D System) in 10 mM sodium acetate (pH 5.0) to the surface of a GLC biosensor chip at ˜5000 resonance units (RU) for each channel. The chimeric proteins in cell culture supernatant were injected and captured by anti-human or mouse polyclonal antibodies onto the GLC surface with a ˜200 RU response. […] The surface was regenerated twice by injecting glycine buffer (10 mM, pH 1.5) at 100 μL/min for 30 sec. All sensorgram data were processed with the ProteOn™ Manager 3.0.1 software.

KO_192-208 = molecular target: T5, KO_192-208 (human; mouse, UniProt P70424 215-231); experiment: as above
T5 construct: domain: counterpart of human amino acids 192-208
Protocol: as §2, §3

KO_295-296 = molecular target: T6, KO_295-296 (human; mouse, UniProt P70424 318-319); experiment: SPR (ProteOn XPR36), variant captured by anti-Her2 polyclonal antibody, 39S injected; apparent affinity
T6 construct: domain: counterpart of human amino acids 295-296
Protocol: as §2, §3

KO_171-187 = KO_171-187 (human; mouse, UniProt P70424 194-210); experiment: as above
Protocol: as §2, §3

KO_250-261 = molecular target: T7, KO_250-261 (human; mouse, UniProt P70424 273-284); experiment: as above
T7 construct: domain: counterpart of human amino acids 250-261
Protocol: as §2, §3

KO_276-285 = molecular target: T8, KO_276-285 (human; mouse, UniProt P70424 299-308); experiment: as above
T8 construct: domain: counterpart of human amino acids 276-285
Protocol: as §2, §3

KO_159-162 = molecular target: T9, KO_159-162 (human; mouse, UniProt P70424 182-185); experiment: as above
T9 construct: domain: counterpart of human amino acids 159-162
Protocol: as §2, §3

[4] = molecular target: T10, recombinant human HER2 extracellular domain protein (human, UniProt P04626 23-652); experiment: BIAcore (SPR), format not stated
[5] = molecular target: Human Her2 (control of Table 4) (human, UniProt P04626 23-652); experiment: SPR (ProteOn XPR36), human Her2 captured by anti-Her2 polyclonal antibody, 39S injected; apparent affinity
Protocol: as §2, §3

human HER2 on cells = molecular target: T11, human HER2 on cells (human, UniProt P04626 23-1255); experiment: FACS competition on BT-474 cells; competitor: fluorescently labelled 39S at 2 µg/mL; unlabelled antibody titrated
T11 construct: whole, on cells; also called HER2 on BT-474 cells; HER2 on T47D cells
Protocol: BT-474 cells were harvested, resuspended in FACS buffer, and 2.5×10⁵ cells/well were added to a 96-well U-bottom plate. […] After 1 hour of staining on ice, cells were washed 3 times with ice-cold FACS buffer and then fixed with 2% PFA. Cells were analyzed by a BD LSR II machine with BD FACSDiva™ software. Data were analyzed with FlowJo software and presented as mean MFI±SEM (n=3).

[6] = molecular target: T10, recombinant human HER2 extracellular …; experiment: BIAcore KD of 39S against the reported KD of 1.39.1
[7] = molecular target: T12, mouse Her2 recombinant extracellular domain protein (mouse, UniProt P70424 23-653); experiment: capture ELISA on coated recombinant extracellular domain protein
T12 construct: extracellular domain
Protocol: as §1

- binding result (KO_146-208): no binding
- binding result (KO_192-208): no binding
- Kd (KO_295-296): 0.0847 nM
- Kd (KO_171-187): 0.038 nM
- Kd (KO_250-261): 0.187 nM
- Kd (KO_276-285): 0.106 nM
- Kd (KO_159-162): 0.101 nM
- Kd [4]: ~1 nM
- Kd [5]: 0.084 nM
- IC50 (read off the curve) (human HER2 on cells): ~3000 ng/mL
- fold increase in binding affinity over the parental antibody (1.39.1) [6]: 2 fold
B1: 39S antibody (antibody, V domains shown)
VH: EVQLVESGGGLVKPGGSLRLSCAASGFTFSSYSMSWVRQAPGKGLEWVSSISSSSSYIYYADSVKGRFTISRDNAKNSLYLQMNSLRAEDTAVYYCARGGDAYNYYYFDYWGQGTLVTVSS
VL: DIVMTQTPLSLSVTPGQPASISCKSSQSVFFRSNNKNILAWYLQKPGQPPQLLIYWASSRESGVPDRFSGSGSGTDFTLKISRVEAEDVGVYYCQQYFGSPFTFGPGTKVDIK
notes: also called lead optimized 39S antibody (LO); anti-HER2 mAb 39S
- binding result [1]: no binding (tested: 50 nM (highest concentration tested))
- binding result [2]: no binding (tested: 50 nM (highest concentration tested))
- binding result [3]: no binding (tested: 50 nM (highest concentration tested))

- binding result [1]: no binding
- binding result [2]: no binding
- binding result [3]: no binding
- binding result [7]: no binding
- IC50 (read off the curve) (human HER2 on cells): ~5000 ng/mL
B2: AZ1.39.1 (antibody, V domains shown)
VH: B1 VH with S35N, A102G
VL: DIVMTQSPDSLAVSLGERATITCKSSQSVFFRSNNKNCLAWYQQRPGQPPNLLIYWASSRESGVPDRFSGSGSGTDFALTISSLQTEDVAVYYCQQYFGSPFTFGPGTKVDIK
